Experimental data as given in patent publication US10059956B2, “Glycosyltransferase gene and use thereof” (SUNTORY HOLDINGS LIMITED, priority 2012, dated 2018).

Tests used:
[1] = tested on: NmGT8 protein; test: Enzyme reaction of flavone substrates with His-tag purified NmGT8 protein solution and UDP-glucose (HPLC); assay type: biochemical, Nemophila menziesii; conditions: reactivity to various flavonoid compounds of FIG. 11 and betanidine
Experimental: The transformed E. coli were cultured at 37° C. to an OD600 value of 0.5 in 8 ml of the prepared culture liquid (approx. 4 hours). This E. coli culture liquid was then used as a pre-culture liquid and added to 200 ml of culture liquid followed by final culturing overnight at 25° C.
Following final culturing overnight, the E. coli culture liquid was centrifuged (1000×g, 4° C., 10 minutes), the collected cells were suspended in 20 ml of extract (composition: buffer (KCl: 300 mM, KH2PO4: 50 mM, imidazole: 5 mm) (pH 8.0), amidinophenylmethanesulfonyl fluoride hydrochloride (APMSF): 10 μM), and after crushing the E. coli by ultrasonic treatment, the crushed cells were centrifuged (1400×g, 4° C., 20 minutes) followed by recovery of the supernatant. This supernatant was passed through a 0.45 μm filter and purified by His-Tag protein purification using Profinia (Bio-Rad Laboratories, Inc.) in accordance with the protocol recommended by the manufacturer. The resulting purified protein solution was centrifuged (7500×g, 4° C., 15 minutes) using centrifugal filters (Ultracel-10K, Amicon Corp.) and the concentrated protein solution was designated as “NmGT8 Protein Solution”. The Avanti HP-26XP (rotor: JA-2) (Beckman Coulter Inc.) was used for centrifugation.
A reaction liquid prepared by mixing 10 μl of protein solution, 2 μl of 50 mM UDP-glucose, 10 μl of 1 M Tris HCl (pH 7.5) and 5 μl of 1 mM apigenin on ice and bringing to a volume of 100 μl with water was held for 20 minutes at 30° C. Subsequently, 100 μl of stop buffer (90% aqueous acetonitrile solution containing 0.1% TFA) were added to stop the reaction followed by analyzing the reaction liquid by high-performance liquid chromatography (Prominence (Shimadzu Corp.)). The Shimadzu PDA SPD-M10AVP was used for the detector and flavone was detected at 330 nm. The Shim-Pack ODS 150 mm×4.6 mm column (Shimadzu Corp.) was used for the column. A Solution A (0.1% aqueous TFA solution) and a Solution B (90% aqueous methanol solution containing 0.1% TFA) were used for elution. Elution was carried out using a linear concentration gradient from an 8:2 mixture of the two solutions to a 3:7 mixture of the two solutions over the course of 10 minutes followed by a 3:7 mixture for 6 minutes. The flow rate was 0.6 ml/min.

[2] = tested on: petunia (Surfinia Bouquet Red); test: Flower petal pigment analysis of recombinant petunia introduced with NmGT8; assay type: in vivo
Source text: Binary vectors pSPB5424 and pSBP5428 for expressing NmGT8 were constructed and introduced into petunia (Surfinia Bouquet Red). […] Details of the introduced constructs are described below (see FIG. 17). pBINPLUS was used for the basic skeleton of pSPB5424, and three expression cassettes were contained therein (consisting of 1: E[…] promoter, full-length cDNA pansy F3'5'H (described in PCT/JP2004/011958, SEQ ID NO: 3) and HSP terminator (Plant Cell Physiology (2010), 51, 328-332); 2: E[…] promoter, full-length cDNA torenia flavone synthase and HSP terminator; and 3: E[…] promoter, full-length cDNA NmGT8 and HSP terminator). pBINPLUS was also used for the basic skeleton of pSPB5428, and two expression cassettes were contained therein (consisting of 1: E[…] promoter, full-length cDNA torenia flavone synthase and HSP terminator; and 2: E[…] promoter, full-length cDNA NmGT8 and HSP terminator). Pigments in the flower petals were analyzed for full-length cDNA torenia flavone synthase and full-length cDNA NmGT8 in those stains in which transcription products were confirmed. 0.2 g of completely open flower petals were freeze-dried for 24 hours or more and finely crushed with a spatula, followed by the addition of 4 ml of extract buffer (composition: 50% aqueous acetonitrile solution containing 0.1% TFA) and subjecting to ultrasonic treatment for 20 minutes. The flower petal extract was analyzed by high-performance liquid chromatography (Prominence (Shimadzu Corp.)). Analyses were carried out under the conditions and in the same manner as in Example 5. Non-recombinant petunia not introduced with genes and recombinant petunia introduced only with torenia flavone synthase that biosynthesizes flavone were analyzed in the same manner as controls (FIG. 18). Moreover, flower petal extract diluted 50-fold was also analyzed with a high-performance liquid chromatograph (Shimadzu Corp.). The Shimadzu LCMS-IF-TOF was used for the detector and flavones were detected at 433.1057 ([Api-Glc+H]) and 449.1084 ([Lut-Glc+H]). The Inertsil ODS-4 (250×4.6 mm, 5 Shimadzu Corp.) was used for the column. […]

[3] = recombinant petunia flower petal extract, LC-MS

B1: NmGT8: nemophila glycosyltransferase (SEQ ID NO: 1/2) having activity that transfers a sugar to the hydroxyl group at the 4′-position of a flavone (protein, listed as Nemophila menziesii)
chain: MEKKTIILYPSPGIGHLVSMVELAKLILNREPSYSIIIFISSAPYSTGSSAPYISHVSATTSGISFHHLPVLVLPPNTFSSFEEIAYKIPQLNNPNLKLALQTISKESSDLKAFIIDFFCTAAVEVSSNLEIPTYFFFTSGSSAMCQFLYLPTLHETITQKDLQDPNTYVHIPGIPPIHSLDLPKVLSNRSTVLYKELINTANQMAKCSGILINAFETLEPKAVKALKEGLCTPGMPTPPVYCIGPLIASGDKGNVNDAHGHEILTWLNSQPSKSVVFLCFGSLGTFKEDQLKEIAIGLENSGHRFLWVMKSPPIDDKTKRFLPPPEPDFNVLLPEGFLERTKERGVIVKSWAPQLAILNHDAIGGFVTHCGWNSVLEAICGGVPMLAWPLYAEQRVNRVCMVEEMKVALPLEESVDGFVMASEIEKRVKELVDYESSEAIRDQVKIMSEKAKTAVAVSGSSHDALTKLLDGWK
- substrate specificity [1]: high substrate specificity and selectively glycosylate the 4′-position of flavones
- flavone 4′-glucoside share of the biosynthesized flavones [2, 3]: 95.6%
- flavone 7-glucoside share of the biosynthesized flavones [2, 3]: 4.4%
- flavones detected in flower petals ([2]; recombinant petunia introduced with flavone synthase and NmGT8, HPLC): apigenin 4′-glucoside and luteolin 4′-glucoside were detected
